Test results published in article doi:10.1101/2022.09.03.506457 (bioRxiv, 2022).
One block for each binder: values may come before it.

B2: Methanocaldococcus jannaschii fumarate hydratase α-subunit (enzyme)
chain: KISDVVVELFREAAIYLPEDVKNALEEAYKKESSEISKNTLKAIIENNKIAEETQVPLCQDTGVPIVFLKIGKNINSSEIMKIIEEIKEGVKKATEEVPLRPNVVHPLTRENFKTNVGLNSPFINIEFDESLDREIEIIAFPKGAGSENMSALKMLKPSDGIEGIKNFVLETIANAGGKPCPPIVVGIGIGGTADVALKLAKKALLRKIGERHRDKEIANLEKELLEKINSLGIGAMGLGGDITALDVFIEIAGCHTASLPVGICIQCWADRRAIKRIKLDAKL

How the values were obtained:
[1] = molecular target: B2; experiment: ITC
SEC = molecular target: the molecule itself; experiment: SEC
crystal structure = molecular target: the molecule itself; experiment: crystal structure

Kd [1]: 595 ± 19 nM
B1: Methanocaldococcus jannaschii fumarate hydratase β-subunit (enzyme)
chain: MEYTFNKLTKKDVKKLKVGDIVYLNGKIYTARDEAHLKIIEMLKSNEKLPFDLNESIIYHAGPIMKKVNDSWVCVSIGPTTSARMNDVEEEFIKLTNISAIVGKGGMKKELLKTFEDYGVVYLAAPGGCAALLANSVKRVDNVYFLDELGMPEAVWELEVNNFGPLIVAMDSHGNSIYEEVNKKVYEKLNELIGL

Binder: B2
stoichiometry N (SEC): 2

B3: Selenomethionine incorporated Methanocaldococcus jannaschii fumarate hydratase α-subunit (of Se-MjFHαβ) (enzyme)
chain: KISDVVVELFREAAIYLPEDVKNALEEAYKKESSEISKNTLKAIIENNKIAEETQVPLCQDTGVPIVFLKIGKNINSSEIMKIIEEIKEGVKKATEEVPLRPNVVHPLTRENFKTNVGLNSPFINIEFDESLDREIEIIAFPKGAGSENMSALKMLKPSDGIEGIKNFVLETIANAGGKPCPPIVVGIGIGGTADVALKLAKKALLRKIGERHRDKEIANLEKELLEKINSLGIGAMGLGGDITALDVFIEIAGCHTASLPVGICIQCWADRRAIKRIKLDAKL
modifications: selenomethionine incorporated (eleven selenium atoms per functional dimer)
binding result (crystal structure): binds
